How the values were obtained:
[1] = target: HA-RanBP2 mFG1/2, full-length (human) (UniProt P49792); assay: co-IP; αHA-agarose immunoprecipitation from nocodazole-arrested HEK293T cells depleted of endogenous RanBP2 by siRNA and transfected with HA-RanBP2 constructs; Crm1 blot normalised to HA-RanBP2, three biological replicates
[2] = target: Cy3-labelled Crm1 (UniProt O14980); assay: MST; conditions: Cy3-labelled Crm1 20 nM; RanBP2-3/4 fragments 0.3 nM-10 μM; no RanQ69L; laser-power 70%, LED-power 20%; parent: est. 0.94; read off a plot

Substance | reduction of co-immunoprecipitated Crm1 against wild-type HA-RanBP2 [1] | other: fraction of bound Crm1-Cy3 at the highest RanBP2-3/4 concentration (10,000 nM) [2]
Crm1, endogenous (HEK293T) (from UniProt O14980 1-1071) (natural protein) | 40% | 
RanBP2-3/4-His (aa 2,304–3,062), free fragment (from UniProt P49792) mFG12 (= mFG1/2, 11 F to S mutations in both FG-repeat patches; positions not printed) |  | 0.04

Reference: PMC4866044
